{"source": "patent US20030186419A1", "about": "(published 2003)", "binders": {"B1": {"name": "mannan binding lectin-associated serine protease 3 (MASP-3), natural protein from human plasma/serum (enzyme)", "chain": "HTVELNNMFGQIQSPGYPDSYPSDSEVTWNITVPDGFRIKLYFMHFNLESSYLCEYDYVKVETEDQVLATFCGRETTDTEQTPGQEVVLSPGSFMSITFRSDFSNEERFTGFDAHYMAVDVDECKEREDEELSCDHYCHNYIGGYYCSCRFGYILHTDNRTCRVECSDNLFTQRTGVITSPDFPNPYPKSSECLYTIELEEGFMVNLQFEDIFDIQDHPEVPCPYDYIKIKVGPKVLGPFCGEKAPEPISTQSHSVLILFHSDNSAENRGWRLSYRAAGNECPELQPPVHGKIEPSQAKYFFKDQVLVSCDTGYKVLKDNVEMDTFQIECLKDGTWSNKIPTCKIVDCRAPGELEHGLITFSTRNNLTTYKSEIKYSCQEPYYKMLNNNTGIYTCSAQGVWMNKVLGRSLPTCLPECGQPSRSLPSLVKRIIGGRNAEPGLFPWQALIVVEDTSRVPNDKWFGSGALLSASWILTAAHVLRSQRRDTTVIPVSKEHVTVYLGLHDVRDKSGAVNSSAARVVLHPDFNIQNYNHDIALVQLQEPVPLGPHVMPVCLPRLEPEGPAPHMLGLVAGWGISNPNVTVDEIISSGTRTLSDVLQYVKLPVVPHAECKTSYESRSGNYSVTENMFCAGYYEGGKDTCLGDSGGAFVIFDDLSQRWVVQGLVSWGGPEECGSKQVYGVYTKVSNYVDWVWEQMGLPQSVVEPQVER", "notes": "Natural protein in lectin preparations, MBL complexes or serum; On reducing blots only the B chain is seen; also called MBL-associated serine protease-3; lectin associated serine protease 110"}}, "target": "T1, MASP-1 (MBL-associated serine protease 1) (human, UniProt P48740 20-699)", "T1 sequence (looked up)": "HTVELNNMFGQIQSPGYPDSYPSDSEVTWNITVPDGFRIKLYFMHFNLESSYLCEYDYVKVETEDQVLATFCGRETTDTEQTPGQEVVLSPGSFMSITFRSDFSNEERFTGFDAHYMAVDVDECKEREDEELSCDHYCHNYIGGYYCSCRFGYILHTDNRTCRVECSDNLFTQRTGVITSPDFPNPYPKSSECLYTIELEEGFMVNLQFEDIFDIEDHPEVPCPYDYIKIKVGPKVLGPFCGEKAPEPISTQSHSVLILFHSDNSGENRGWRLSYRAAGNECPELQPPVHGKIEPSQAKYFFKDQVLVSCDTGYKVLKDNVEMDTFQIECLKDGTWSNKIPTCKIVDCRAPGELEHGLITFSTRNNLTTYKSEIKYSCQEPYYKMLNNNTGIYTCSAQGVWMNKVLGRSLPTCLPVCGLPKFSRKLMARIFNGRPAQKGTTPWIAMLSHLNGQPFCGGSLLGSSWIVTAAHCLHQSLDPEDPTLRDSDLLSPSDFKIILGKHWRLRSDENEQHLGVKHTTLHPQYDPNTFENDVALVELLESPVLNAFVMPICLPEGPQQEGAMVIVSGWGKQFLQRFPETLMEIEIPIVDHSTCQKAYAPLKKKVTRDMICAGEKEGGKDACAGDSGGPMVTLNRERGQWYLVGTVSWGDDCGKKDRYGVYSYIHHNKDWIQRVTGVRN", "assay": "co-capture on anti-MASP-1-coated wells, eluate blotted with anti-pMASP-3", "data": [{"binder": "B1", "values": [{"measurement": "binding result", "value": "no binding"}]}]}
